Measurements published in paper PMC6349404.

molecular target: recombinant human Osteolectin (human) (UniProt Q9Y240); test: ELISA; microtiter well binding assay; plates coated with 10 nM recombinant human Osteolectin, Pro-Collagen 1α or BSA overnight at 4°C, blocked with 10 mg/ml BSA; 6xHis tagged integrins in TBS (50 mM Tris-Cl pH 7.5, 150 mM NaCl) with 1 mM MnCl2; bound integrin detected with anti-His tag antibody and HRP secondary, OD 450 nm
Sequence (Q9Y240 22-323): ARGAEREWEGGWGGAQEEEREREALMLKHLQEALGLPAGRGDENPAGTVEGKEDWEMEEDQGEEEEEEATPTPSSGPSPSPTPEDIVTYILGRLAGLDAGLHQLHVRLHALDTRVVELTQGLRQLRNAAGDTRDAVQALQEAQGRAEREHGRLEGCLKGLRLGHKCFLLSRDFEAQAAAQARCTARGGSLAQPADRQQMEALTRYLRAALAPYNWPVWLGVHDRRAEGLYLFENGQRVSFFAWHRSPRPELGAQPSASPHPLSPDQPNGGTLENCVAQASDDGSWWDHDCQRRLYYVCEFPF

Row | Kd | Substance
1 | > 100 nM | recombinant human integrin αIIbβ3 (from UniProt P08514 32-1039; P05106 27-718) (complex)
2 | > 100 nM | recombinant human integrin αVβ1 (from UniProt P06756 31-1048; P05556 21-728) (complex)
3 | > 100 nM | recombinant human integrin αVβ3 (from UniProt P06756 31-1048; P05106 27-718) (complex)
